Earlier results, collected in paper PMC2730980.
pKd: −log10 of the molar value.

Biological target: Synaptotagmin II (Rattus norvegicus) (UniProt P29101)
Sequence of UniProt P29101 (P29101 whole entry): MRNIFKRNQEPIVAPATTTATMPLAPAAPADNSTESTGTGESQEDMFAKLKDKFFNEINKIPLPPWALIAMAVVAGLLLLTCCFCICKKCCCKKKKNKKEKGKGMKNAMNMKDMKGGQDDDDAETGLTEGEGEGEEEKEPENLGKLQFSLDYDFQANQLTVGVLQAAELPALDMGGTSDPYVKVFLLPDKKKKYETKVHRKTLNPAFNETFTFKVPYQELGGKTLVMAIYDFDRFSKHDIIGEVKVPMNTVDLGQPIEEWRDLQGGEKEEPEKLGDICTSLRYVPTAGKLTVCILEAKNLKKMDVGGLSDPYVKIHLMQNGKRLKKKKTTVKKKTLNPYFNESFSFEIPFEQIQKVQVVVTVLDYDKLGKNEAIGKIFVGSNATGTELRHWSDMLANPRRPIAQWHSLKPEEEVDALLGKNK

Botulinum neurotoxin type B (from UniProt P10844)
pKd: 9.40
